Key:
[1] = target: T1, MASP-1 (human, UniProt P48740 20-699, limits assumed); test: solid phase ELISA, against human MASP-2 as reference
T1 construct: Species read from 'Recombinant human MASP-2 or C1r, C1s, CFD, MASP-1 and MASP-3'
T1 sequence (looked up): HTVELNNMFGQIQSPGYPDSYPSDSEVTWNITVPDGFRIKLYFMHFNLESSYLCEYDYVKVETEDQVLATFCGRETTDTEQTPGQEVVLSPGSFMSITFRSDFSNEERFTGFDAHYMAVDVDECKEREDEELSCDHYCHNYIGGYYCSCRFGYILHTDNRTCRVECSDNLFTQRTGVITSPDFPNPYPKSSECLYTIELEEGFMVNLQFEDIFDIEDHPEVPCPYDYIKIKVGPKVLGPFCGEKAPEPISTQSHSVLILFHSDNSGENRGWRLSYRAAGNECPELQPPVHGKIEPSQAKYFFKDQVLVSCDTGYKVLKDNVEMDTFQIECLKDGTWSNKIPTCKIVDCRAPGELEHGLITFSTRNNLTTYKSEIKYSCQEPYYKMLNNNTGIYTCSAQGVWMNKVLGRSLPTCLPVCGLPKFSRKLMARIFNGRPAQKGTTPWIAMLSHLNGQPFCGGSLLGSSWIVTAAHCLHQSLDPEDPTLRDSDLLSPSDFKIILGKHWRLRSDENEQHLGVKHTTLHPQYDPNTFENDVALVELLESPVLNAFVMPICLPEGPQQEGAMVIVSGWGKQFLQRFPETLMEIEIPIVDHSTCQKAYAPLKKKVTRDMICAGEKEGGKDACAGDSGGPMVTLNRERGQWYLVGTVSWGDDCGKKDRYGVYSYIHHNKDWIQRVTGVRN
From the text: (§1) The apparent dissociation constant (KD) was estimated by nonlinear regression using a 4-parameter logistic model.
Fold selectivity calculated as KD(related serine protease)/mean KD(MASP-2).

[2] = target: T1, MASP-1; test: solid phase ELISA, immobilized protease, apparent KD
From the text: as §1

[3] = target: T2, MASP-3 (human, UniProt P48740-2 20-728, limits assumed); test: as above
T2 construct: Species read from 'Recombinant human MASP-2 or C1r, C1s, CFD, MASP-1 and MASP-3'
T2 sequence (looked up): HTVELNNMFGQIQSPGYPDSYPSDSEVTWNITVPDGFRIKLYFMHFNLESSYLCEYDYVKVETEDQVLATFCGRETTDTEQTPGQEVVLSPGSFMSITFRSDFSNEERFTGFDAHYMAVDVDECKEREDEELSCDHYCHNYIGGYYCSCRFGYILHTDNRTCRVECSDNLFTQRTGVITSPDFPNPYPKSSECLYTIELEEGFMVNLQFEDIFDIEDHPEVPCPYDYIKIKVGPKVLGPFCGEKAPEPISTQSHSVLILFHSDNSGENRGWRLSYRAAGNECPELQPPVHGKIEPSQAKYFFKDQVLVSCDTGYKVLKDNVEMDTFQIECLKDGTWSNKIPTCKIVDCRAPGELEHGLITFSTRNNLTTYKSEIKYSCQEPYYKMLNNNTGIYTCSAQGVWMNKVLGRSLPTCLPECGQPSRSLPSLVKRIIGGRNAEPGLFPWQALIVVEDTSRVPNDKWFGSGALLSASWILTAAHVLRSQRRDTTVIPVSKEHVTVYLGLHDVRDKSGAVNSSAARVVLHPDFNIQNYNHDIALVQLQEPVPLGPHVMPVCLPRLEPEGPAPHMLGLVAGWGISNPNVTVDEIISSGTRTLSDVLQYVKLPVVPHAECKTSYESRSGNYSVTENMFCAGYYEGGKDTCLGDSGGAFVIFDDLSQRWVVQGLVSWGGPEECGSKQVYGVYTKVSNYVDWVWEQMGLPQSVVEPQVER
From the text: as §1

[4] = target: T3, C1r (human, UniProt P00736 18-705, limits assumed); test: as above
T3 construct: Species read from 'Recombinant human MASP-2 or C1r, C1s, CFD, MASP-1 and MASP-3'
T3 sequence (looked up): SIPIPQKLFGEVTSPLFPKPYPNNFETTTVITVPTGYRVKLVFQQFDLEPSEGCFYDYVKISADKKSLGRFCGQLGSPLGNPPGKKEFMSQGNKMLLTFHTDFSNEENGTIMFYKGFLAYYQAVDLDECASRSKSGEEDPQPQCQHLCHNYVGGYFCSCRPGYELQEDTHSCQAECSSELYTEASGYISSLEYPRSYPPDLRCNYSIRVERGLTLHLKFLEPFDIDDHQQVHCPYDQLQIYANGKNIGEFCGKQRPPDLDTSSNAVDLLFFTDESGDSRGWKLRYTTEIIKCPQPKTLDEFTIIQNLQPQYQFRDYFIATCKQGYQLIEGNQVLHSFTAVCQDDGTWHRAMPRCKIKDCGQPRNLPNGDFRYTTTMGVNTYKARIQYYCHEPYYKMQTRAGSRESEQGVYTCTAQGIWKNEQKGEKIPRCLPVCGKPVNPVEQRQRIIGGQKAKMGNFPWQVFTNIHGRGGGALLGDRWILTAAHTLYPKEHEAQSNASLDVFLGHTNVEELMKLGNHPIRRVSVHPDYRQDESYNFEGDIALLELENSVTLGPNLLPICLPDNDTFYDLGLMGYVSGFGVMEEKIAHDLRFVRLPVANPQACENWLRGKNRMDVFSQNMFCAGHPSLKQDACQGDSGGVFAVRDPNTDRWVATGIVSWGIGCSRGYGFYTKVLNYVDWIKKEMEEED
From the text: as §1

[5] = target: T4, CFD (human, UniProt P00746 26-253, limits assumed); test: as above
T4 construct: Species read from 'Recombinant human MASP-2 or C1r, C1s, CFD, MASP-1 and MASP-3'; also called factor D; complement factor D
From the text: as §1

[6] = target: T5, Human MASP-2 CCP1/CCP2/SP H508Q 'dog-like' (human, UniProt O00187 287-686, limits assumed); test: BLI (Octet RED96), H508Q against wild-type human MASP-2 CCP1/CCP2/SP
T5 construct: also called dog-like variant of human MASP-2; MASP-2 H508Q
Description: All measurements were conducted with the Octet RED96 system (ForteBio) using PBS containing 1% BSA and 0.02% Tween 20 as assay buffer. […] After one step of baseline, the captured sensors were submerged into wells containing different concentrations of the target proteins (1.6-50 nM) for the association step (120 sec), and then transferred to empty wells for the dissociation step (200 sec). In all experiments, the captured sensor was also dipped in a well containing no analyte to allow single reference subtraction to compensate for the natural dissociation of the captured antibody. The recorded binding sensorgrams were analyzed with Octet data analysis software (ForteBio) to determine binding affinity (KD).

T4 sequence (P00746 26-253 limits assumed): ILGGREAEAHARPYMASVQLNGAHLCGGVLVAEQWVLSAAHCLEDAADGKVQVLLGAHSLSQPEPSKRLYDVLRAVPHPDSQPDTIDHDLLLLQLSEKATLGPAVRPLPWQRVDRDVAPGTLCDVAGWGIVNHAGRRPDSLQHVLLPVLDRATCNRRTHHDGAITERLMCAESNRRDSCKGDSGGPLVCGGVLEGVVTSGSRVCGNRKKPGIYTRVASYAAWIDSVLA
T5 sequence (O00187 other isoform, or with tags, fused parts or gaps H508Q H508Q limits assumed): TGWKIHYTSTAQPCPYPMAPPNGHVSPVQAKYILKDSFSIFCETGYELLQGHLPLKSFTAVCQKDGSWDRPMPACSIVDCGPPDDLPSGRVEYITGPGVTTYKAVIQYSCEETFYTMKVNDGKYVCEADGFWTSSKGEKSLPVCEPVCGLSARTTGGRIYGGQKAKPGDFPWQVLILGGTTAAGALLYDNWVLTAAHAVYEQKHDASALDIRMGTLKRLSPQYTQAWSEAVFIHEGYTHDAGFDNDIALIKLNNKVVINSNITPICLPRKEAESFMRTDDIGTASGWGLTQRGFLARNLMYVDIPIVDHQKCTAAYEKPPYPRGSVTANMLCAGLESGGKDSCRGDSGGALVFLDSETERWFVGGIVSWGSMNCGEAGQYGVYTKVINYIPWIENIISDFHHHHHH

B1: mAb OMS858 (humanized anti-MASP-2 antibody) (antibody, V domains shown)
VH: QVQLVQSGAEVKKPGASVKVSCKASGYTFTNHHMHWLRQAPGQGLEWIGDIDASDSETHYIEKFKDRATLTIDKSSSTAYMELSSLRSEDTAVYYCARGDITTTLRYFDVWGQGTLVTVSS
VL: DIQLTQSPSSLSASVGDRVTITCSASSSVRYMYWYQQKPGKAPKLLIYDTSNLASGVPSRFSGSGSGTDNTLTISSLQPEDFATYYCQQWSSYPLTFGQGTKVEIKR
notes: also called antibody OMS858; biotinylated OMS858
[1]
  Fold selectivity (KD related serine protease / mean KD MASP-2): > 2000 fold
[2]
  Kd: > 100 µg/mL
[3]
  Kd: > 100 µg/mL
[4]
  Kd: > 100 µg/mL
[5]
  Kd: > 100 µg/mL
[6]
  fold reduction of binding affinity against wild-type human MASP-2 CCP1/CCP2/SP: ~450 fold
